Experimental data as given in patent US20220009992A1 (FRED HUTCHINSON CANCER CENTER, published 2022).

Target: peptide #10 (from the gene EHF) presented on peptide-pulsed T2 target cells (human, UniProt P61769 21-119)
Test: cell-based or functional assay

B1: TCR Msln530-B11 (TCR, V domains shown)
V domain 1: ETGVTQSPTHLIKTRGQQVTLRCSSQSGHNTVSWYQQALGQGPQFIFQYYREEENGRGNFPPRFSGLQFPNYSSELNVNALELDDSALYLCASSFAGGRSDTQYFGPGTRLTVLE
V domain 2: KQEVTQIPAALSVPEGENLVLNCSFTDSAIYNLQWFRQDPGKGLTSLLLIQSSQREQTSGRLNASLDKSSGRSTLYIAASQPGDSATYLCAVRLLFAQGGSEKLVFGKGTKLTVNP
In the case of B1, the “EC50 of peptide for IFN-γ production, ratio to the EC50 for Msln530” value is reported as > 3000 fold (EC50 for peptide #10 over EC50 for Msln530).
